Data as given in patent publication US20150315270A1 (CONSEJO NACIONAL DE INVESTIGATION CIENTIFICA, published 2015).
Values belong to the binder of their own block, whether it stands above or below them.

Legend:
mouse VEGF-A = molecular target: T1, mouse VEGF-A (mouse, UniProt Q00731-2 27-190, limits assumed); assay: ELISA and SPR
T1 sequence (looked up): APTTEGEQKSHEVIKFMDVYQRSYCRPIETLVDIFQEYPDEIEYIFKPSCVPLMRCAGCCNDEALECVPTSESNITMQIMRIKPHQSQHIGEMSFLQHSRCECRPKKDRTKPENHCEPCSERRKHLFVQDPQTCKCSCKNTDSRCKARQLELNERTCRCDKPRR

human VEGF-A165 [1] = molecular target: T2, human VEGF-A165 (human, UniProt P15692 207-395); assay: SPR, Biacore T100, kinetic analysis, 1:1 model
T2 construct: also called VEGF165; human recombinant VEGF165

human VEGF-A165 [2] = molecular target: T2, human VEGF-A165; assay: cell-based or functional assay
human VEGF-B186 = molecular target: T3, human VEGF-B186 (human, UniProt P49765 22-207); assay: SPR, Biacore T100, antibody (6.30-0.18 uM) injected over immobilized VEGF-B186 (4000 RU), 1:1 model
T3 construct: also called Vascular endothelial growth factor antigen B
T3 sequence: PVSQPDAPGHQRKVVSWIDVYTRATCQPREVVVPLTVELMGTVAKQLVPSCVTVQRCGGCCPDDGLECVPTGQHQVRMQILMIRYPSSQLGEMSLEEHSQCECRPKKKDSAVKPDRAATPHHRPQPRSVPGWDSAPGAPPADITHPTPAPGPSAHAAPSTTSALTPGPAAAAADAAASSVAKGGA
Method: KA and KD respectively, were determined by kinetic analysis fitting a 1:1 interaction model using biacore T100 Evaluation software.

human VEGF-A165 [3] = molecular target: T2, human VEGF-A165; assay: SPR, BIAcore T100, kinetic analysis, 1:1 model
Method: Affinity and Dissociation Constants, KA and KD, respectively, were determined by kinetic analysis fitting a 1:1 interaction model using the BIAcore T100 evaluation software.

binding result (mouse VEGF-A): no binding
Kd (human VEGF-A165 [1]): 0.0053 nM
koff (human VEGF-A165 [1]): 9.9e-05 s⁻¹
kon (human VEGF-A165 [1]): 1.87e+07 M⁻¹ s⁻¹
IC50, HUVEC proliferation assay (human VEGF-A165 [2]): ~0.011 µg/mL
IC50 in the HUVEC proliferation assay against that of bevacizumab (human VEGF-A165 [2]): 5 fold lower
koff (human VEGF-B186): 0.00571 s⁻¹
kon (human VEGF-B186): 32800 M⁻¹ s⁻¹
B1: mMcA-AB1-anti-VEGF-A (mouse monoclonal antibody A-AB1-anti-VEGF-A) (antibody, V domains shown)
VH: QVKLLESGPELKKPGETVKISCKASGYTFTNFGMNWVKQAPGKGLKWMGWINTNTGEPTYVDDFKGRFAFSLETSASSAYLQISNLNNEDTATYFCARYYGSTSVWYFDVWGAGTTVTVSS
VL: ELVMTQTPSSLSASLGDRVTITCRASQDIFNYLNWYQQKPDGPIKLLIYYSSRLHSGVPSRFSGSGSGTDYSLTISNLDREDIATYFCQQGFTLPWTFGGGTKLEIKR
notes: also called mMc-AB1-anti-VEGF-A; mouse AB1 antibody

binding result (mouse VEGF-A): no binding
Ka (human VEGF-A165 [3]): 9.24e+09 M⁻¹
Kd (human VEGF-A165 [3]): 0.109 nM
koff (human VEGF-A165 [3]): 0.000421 s⁻¹
kon (human VEGF-A165 [3]): 3.83e+06 M⁻¹ s⁻¹
IC50, HUVEC proliferation assay (human VEGF-A165 [2]): ~0.019 µg/mL
IC50 in the HUVEC proliferation assay against that of bevacizumab (human VEGF-A165 [2]): 3 fold lower
B2: hMcA-AB1-anti-VEGF-A (humanized monoclonal antibody A-AB1-anti-VEGF-A) (antibody, human IgG1, V domains shown)
VH: QVQLVQSGSELKKPGASVKVSCKASGYTFTNFGMNWVRQAPGQGLEWMGWINTNTGEPTYVDDFKGRFVFSLDTSVSTAYLQISSLKAEDTAVYYCARYYGSTSVWYFDVWGRGTLVTVSS
VL: DIQMTQSPSSLSASVGDRVTITCRASQDIFNYLNWYQQKPGKAPKLLIYYSSRLHSGVPSRFSGSGSGTDFTFTISSLQPEDIATYYCQQGFTLPWTFGQGTKVEIKR
notes: The constant regions come from the vectors pFUSE-CHIg-hG1 (human IgG1 heavy) and pFUSE2-CLIg-hk (human kappa light); also called hMcA-AB1-VEGF-A; humanized mMc-AB1-anti-VEGF-A
